From article PMC5727398, “Nucleotide– and Mal3-dependent changes in fission yeast microtubules suggest a structural plasticity view of dynamics” (Nature Communications, 2017)

B2: S. pombe α-tubulin1 (in the microtubule lattice) (natural protein, UniProt P04688 1-455, looked up)
chain: MREVISVHVGQAGVQIGNACWELYCLEHGIGPDGFPTENSEVHKNNSYLNDGFGTFFSETGQGKFVPRSIYVDLEPNVIDQVRTGPYKDLFHPEQMVTGKEDASNNYARGHYTVGKEMIDSVLERIRRMADNCSGLQGFLVFHSFGGGTGSGLGALLLERLNMEYGKKSNLQFSVYPAPQVSTSVVEPYNSVLTTHATLDNSDCTFMVDNEACYDICRRNLDIERPTYENLNRLIAQVVSSITASLRFAGSLNVDLNEFQTNLVPYPRIHFPLVTYSPIVSAAKAFHESNSVQEITNQCFEPYNQMVKCDPRTGRYMATCLLYRGDVIPRDVQAAVTSIKSRRTIQFVDWCPTGFKIGICYEPPQHVPGSGIAKVNRAVCMLSNTTSIAEAWSRLDHKFDLMYSKRAFVHWYVGEGMEEGEFSEAREDLAALERDYEEVGQDSMDNEMYEADEEY
notes: S. pombe alpha-tubulin1, native, untagged; the sample was a wild-type mixture of alpha-tubulin1 and alpha-tubulin2, the model and the residue numbers are those of alpha-tubulin1; Subunit of m2, written alone for the contacts seen in the structure; also called Sp_α-tubulin1; Sp_α-tub; source: purified from S. pombe as tag-free endogenous tubulin (dual isoform), polymerized in vitro

Experiments:
[1] = target: B2; test: cryo-EM structure; 20 or 30 uM dual-isoform Sp_tub polymerized with 5 mM GTP and 25 uM Mal3-143 at 32 °C in PEM mixed 1:1 with MES buffer; 13 uM MTs incubated with 60 uM Mal3 before freezing; 13-PF (13_3) MTs, single-particle averaging, 4.6 Å, no kinesin motor domain; conditions: both partners purified
[2] = target: the molecule itself; test: as above
[3] = target: T1, dynamic microtubules polymerized from unlabeled single-isoform S. pombe tubulin (S. pombe, UniProt P04688 1-455; P05219 1-448); test: TIRF microscopy; dynamic unlabeled MTs grown from antibody-immobilized GMPCPP pig brain MT seeds; GFP-labelled EB protein in solution; PEM100 pH 6.9 plus 1 mM GTP, with additional KCl (55, 75, 85 mM) in some experiments; 4.5 or 14 uM Sp_tub, 25 uM pig brain tubulin; conditions: both partners purified
T1 construct: S. pombe alpha-tubulin1, untagged; S. pombe beta-tubulin, untagged; Polymer of alpha-beta heterodimers, grown with 1 mM GTP from Alexa-488-labeled GMPCPP-stabilized pig brain MT seeds
T1 sequence (P05219 whole entry, canonical isoform, one chain of several): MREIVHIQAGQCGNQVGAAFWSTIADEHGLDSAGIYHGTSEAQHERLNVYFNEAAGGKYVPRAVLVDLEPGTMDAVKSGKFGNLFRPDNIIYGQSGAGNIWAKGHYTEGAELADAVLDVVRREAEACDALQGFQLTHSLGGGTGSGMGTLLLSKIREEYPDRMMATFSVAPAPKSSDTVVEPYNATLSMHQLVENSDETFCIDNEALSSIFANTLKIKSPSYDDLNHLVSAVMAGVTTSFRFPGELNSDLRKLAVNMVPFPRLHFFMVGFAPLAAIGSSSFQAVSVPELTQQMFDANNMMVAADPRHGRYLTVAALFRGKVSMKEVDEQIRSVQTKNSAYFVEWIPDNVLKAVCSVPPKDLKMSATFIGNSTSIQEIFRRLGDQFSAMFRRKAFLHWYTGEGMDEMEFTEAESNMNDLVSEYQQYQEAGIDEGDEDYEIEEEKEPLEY

B1: monomeric Mal3 (1-143, Mal3-143) (domain or fragment, S. pombe, UniProt Q10113 1-143, looked up)
chain: MSESRQELLAWINQVTSLGLTRIEDCGKGYAMIQIFDSIYQDIPLKKVNFECNNEYQYINNWKVLQQVFLKKGIDKVVDPERLSRCKMQDNLEFVQWAKRFWDQYYPGGDYDALARRGNRGPANTRVMNSSAGATGPSRRRQV
notes: also called Mal3 CH domain
[1]
  binding result: binds

## B2
[2]
  binding result: binds

B3: full-length Mal3-GFP (natural protein, S. pombe, UniProt Q10113 1-308, looked up)
chain: MSESRQELLAWINQVTSLGLTRIEDCGKGYAMIQIFDSIYQDIPLKKVNFECNNEYQYINNWKVLQQVFLKKGIDKVVDPERLSRCKMQDNLEFVQWAKRFWDQYYPGGDYDALARRGNRGPANTRVMNSSAGATGPSRRRQVSSGSSTPSMTKSSANNNNVSSTANTAAVLRAKQAQQQITSLETQLYEVNETMFGLERERDFYFNKLREIEILVQTHLTTSPMSMENMLERIQAILYSTEDGFELPPDQPADLTTALTDHDTNNVAEEAQMTDLKDSETQRVPSAPDFVHARLQSLEVDDDENITF
notes: Mal3, the S. pombe EB protein, full length; His tag removed by TEV protease cleavage; also called dimeric Mal3; not shown: e-GFP, C-terminal, kept
[3]
  binding result: binds
